Measurements from patent publication US20260317413 (published 2026).
Where two headings read alike, the source gives them in different places.

Experiments:
alpha-cobratoxin [1] = target: T1, alpha-cobratoxin (Naja kaouthia, UniProt P01391); assay: BLI
T1 chain: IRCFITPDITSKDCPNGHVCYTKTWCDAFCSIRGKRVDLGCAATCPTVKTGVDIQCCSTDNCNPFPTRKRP

alpha-bungarotoxin [2] = target: T2, alpha-bungarotoxin (Bungarus multicinctus, UniProt P60615); assay: BLI
alpha-cobratoxin [3] = target: T1, alpha-cobratoxin; assay: BLI
alpha-cobratoxin [4] = target: T1, alpha-cobratoxin; assay: BLI
alpha-cobratoxin [5] = target: T1, alpha-cobratoxin; assay: SPR
alpha-cobratoxin [6] = target: T1, alpha-cobratoxin; assay: BLI
alpha-bungarotoxin [7] = target: T2, alpha-bungarotoxin; assay: BLI; remark: listed apart in the source
alpha-cobratoxin [8] = target: T1, alpha-cobratoxin; assay: SPR

T2 sequence (P60615 22-95): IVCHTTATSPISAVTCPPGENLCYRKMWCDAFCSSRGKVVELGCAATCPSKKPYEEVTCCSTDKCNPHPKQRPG

B1: 2554_01_D11 (antibody, V domains shown)
VH: QVQLVQSGAEVKKPGSSVKVSCKASGGTFSSYAISWVRQAPGQGLEWMGGIIPIFGTANYAQKFQGRVTITADESTSTAYMELRSLRSDDTAVYYCARDNLGYCSGGSCYSDYYYYYMDVWGQGTLVTVSS
VL: SNFMLTQPRSVSESPGKTVTISCTRSSGSIGSDYVHWYQQRPGSSPTTVIYEDNQRPSGVPDRFSGSIDSSSNSASLTISGLKTEDEADYYCQSYDRSNHEVVFGGGTKLTVL
koff (alpha-cobratoxin [1]): 0.000327 s⁻¹ | Kd (alpha-bungarotoxin [2]): 122 nM | Kd (alpha-cobratoxin [3]): 2.9 nM | Kd (alpha-cobratoxin [4]): 2.91 nM | Kd (alpha-cobratoxin [5]): 10.4 nM | koff (alpha-cobratoxin [6]): 0.000396 s⁻¹ | koff (alpha-bungarotoxin [7]): 0.00388 s⁻¹ | Kd (alpha-cobratoxin [8]): 2.3 nM
